Test results reported in publication PMC2902579.

Legend:
[1] = target: T1, PKR dsRBD (p20) (UniProt P19525 1-184); assay: nuclease footprinting
[2] = target: T1, PKR dsRBD (p20); assay: EMSA

T1 sequence (P19525 1-184): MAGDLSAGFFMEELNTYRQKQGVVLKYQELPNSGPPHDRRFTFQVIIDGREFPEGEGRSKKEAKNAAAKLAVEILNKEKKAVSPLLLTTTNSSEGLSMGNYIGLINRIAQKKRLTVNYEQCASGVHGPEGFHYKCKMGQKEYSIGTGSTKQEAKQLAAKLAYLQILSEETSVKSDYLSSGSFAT

Binder | binding result [1] | binding result [2]
HCV IRES domain II (39-119) (structured_RNA) RNA: GGACUCCCCUGUGAGGAACUACUGUCUUCACGCAGAAAGCGUCUAGCCAUGGCGUUAGUAUGAGUGUCGUGCAGCCUCCAGGA | binds | 
HCV IRES domains III-IV (131-388) (structured_RNA) RNA: GGGAGAGCCAUAGUGGUCUGCGGAACCGGUGAGUACACCGGAAUUGCCAGGACGACCGGGUCCUUUCUUGGAUCAACCCGCUCAAUGCCUGGAGAUUUGGGCGUGCCCCCGCGAGACUGCUAGCCGAGUAGUGUUGGGUCGCGAAAGGCCUUGUGGUACUGCCUGAUAGGGUGCUUGCGAGUGCCCCGGGAGGUCUCGUAGACCGUGCACCAUGAGCACGAAUCCUAAACCUCAAAGAAAAACCAAAGGGCGCGCCGC |  | binds
